Test results reported in patent US20240026407A1, “MODIFICATION OF SAPONINS” (GLAXOSMITHKLINE BIOLOGICALS SA, priority 2020, published 2024).

Columns and labels:
Type in all cases: biochemical, Quillaja saponaria
[1] = Experiment 6-1: specificity of rhamnosidases towards other rhamnose residues (C3 saccharide rhamnose, C28 saccharide rhamnose); conditions: TBE 2%, pH 7.5, 30 degC, 18 h; LCMS/MS; negative controls 0.18, 0.17
[2] = Experiment 6-1: screening of rhamnosidases for derhamnosylation of saponins in treated bark extract (2%), QS-17 2310 to QS-18 2164 (PAR %); conditions: TBE 2%, pH 7.5, 30 degC, 18 h; TIC peak area ratio percent, LCMS/MS; negative controls 3.061, 2.429
[3] = Experiment 6-1: screening of rhamnosidases for derhamnosylation of saponins in treated bark extract (2%), desglucosyl-QS-17 2134 to QS-21 1988 (PAR %); conditions: TBE 2%, pH 7.5, 30 degC, 18 h; TIC peak area ratio percent, LCMS/MS; negative controls 2.719, 2.158
[4] = Experiment 6-1: screening of rhamnosidases for derhamnosylation of saponins in treated bark extract (2%), QS-17 2296 to QS-18 2150 (PAR %); conditions: TBE 2%, pH 7.5, 30 degC, 18 h; TIC peak area ratio percent of rhamnosylated starting saponin to derhamnosylated product, LCMS/MS; negative controls 4.876, 5.225

| Molecule | ratio PP/QS-21 [1] | Peak57 (PAR %) [2] [%] | Peak75 (PAR %) [3] [%] | QS-17 (PAR %) [4] [%] |
| --- | --- | --- | --- | --- |
| 1054 (protein, listed as Streptosporangium roseum) MEQAVAAALAVTDLRMDGRTEPLGLGESAPRFSWRLAAPGRGRAQSAYRIVVGRECDPLAEGAEVLWDTGEVGSSRTFDIAYEGAELRPRTRYQWRARAADEAGTWGDWSPAHWFETGLGDVTGWTADWIGTPAVPGSQRLPSLENVPRIWAAGPLGPSEARTGGFRTRFTVPGGARPLSAWLVIGGALDPQVHLNGMPVAGEVRDGAFVADAGDLIDSGENVLALRAGAVDGLPGGLCVRLEVVLEGRPALPQLVPVAGESAVTVTSDGRWRAAGEPAPGFEQPGFDDTGWSLAEEVGLHGDPPRGREPVADRPSPYLRREFDVPRPVSRARLYATALGVYELHLNGMRVSADHLAPGWTDYRHRVTYQTYDVTALVAEGGNALGAVLADGWYAGNISWFGSFQYGRRLALRAELEIVHDDGTTTRLRTDSDWRAGSGAIRYADLQNGERQDLAAEPVGWTACGFDDSGWLPAVPVSPPAGRPAAAVAPPVRVHEELAPRAVWESSPGVWIADFGQNVVGWVRLTARAGRDRPVVLRHAEVLDHEGALHLANLRSARATDEFLPRGGAGAETFEPRFTFHGFRYVEVSGLREPLTSDAIRARVAYAAMEPAGEFACSDERLNRLQGNIVRGQRGNFLSIPTDCPQRDERLGWTGDIWAFAPTALFNYDARAFLHSWLTDVVDAQAEDGAVTHVVPDVLSGRGLSPNPREAGSPGWGDAIVMLPWALYRLCGDADAVARYYGPMRRWLAYLDSRSTDGIFPDEGFGDWLSIGADTPKRLVGTAIFALSARQLAELAAALGRADDERACLEVYARVRRAFRAAFVQGPGVVESGTQTAYVLAITAGLLEEAELPRAAARLVRDIEARGGHLSTGFLGTPFLLDALTRSGHLGTAYRLLLQESFPSWLYPVVHGDATTMWERWDGWSHHRGLQDPGMNSFNHYAYGAVGAWMYETIGGLAPASPGYRAIVVRPRPGGELTWARTAYRTRHGRVEIAWRREGGDFTLEVRVPPNTRAEVWVPGGPAGVTESGRPAAESPGVALDRVVDGHAVYEVGSGSYAFHV | 0.17 | 2.487 | 2.160 | 4.348 |
| 1046 (protein, Catenovulum agarivorans) MQYWQKQLKFTSIILLSGLTLGGITACAEQDIAQLQNVEAEPSPVEQEAQTSLATSFKHPPHEAKPLTWLHAMSGNMSKAGLTKDLEAIAEAGLGGTMLFNVTQGIPLGKVKFNSTEHIDLIGHLAAESQRLGLSFGMHNCDGWTSSGGPWVTPEHSMKQITYNETIVDGGNVNIKLAQPATMLDYYQDIAVIAYPSLATEITDFTVKPKITASDANFDAQIVQNNNLTDYSSITPSNEQPGWLQFSYQQPYTLRLIDMLLHSGRGLNVSLHISDDGKNFKQVDNLTLRRPGKSTYAFDEAFAGYTAKHFRLVSNKVMHIKELRLSSTPSLDNFSGRTAASRSDYQEFEDIGKPSAELVIDPESVINLTASLNSEGQLITTLPAGKWTIMRFGYTSTGAVNIPASREGTGLEVDKFSKAAFKSHYDAYITNVIDKLKVVAPNALYSIEIDSYEVGAQNWTHNYEQLFQAQFGYDLVPFLPLFAGKFVESPTVAEAVLWDTRDLNNKLITENYYGYFRELAHQDGIKTYLEPYGSGPFNELDVASKADLPMGEFWLDNNNFRLSASASAAHIYNKPIVAAEAFTQFPRNNWLFHPAEGKADSDKSWALGVNQHVFHRFAHQANTHVMPGMTMNRWGAHMDRTQTWWTVAGKPWFKYVARGQQLLRTGHNVADVLWFLGDATPTTCPEKDPISAVLPLNINYDCLNSEVLQRLSVEDGKVTLPHGSQYKILVLNNHQTLTLKSLKKIYQLAQQGAVIVGTPVEQLAGRFVSEQQRQELKMMVDYIWSQPTTYNISTKAKTSHGHTGVFPTHEIAKTSKIDWQKIYNEQNWPLDLAIKNADKFYFTHRRSAQYDIYFIFNDSAQAQVFDARFNISGKIPELWDADTGNITQLGAFSDNGQITRVPLKLGAYDSVFVVFEKSSKAVTALKPEFVLSQPELDVVLDAQQQPKVIKTTHEAIEITGAWQVEFDKFYGLDKSFTFEQLIDWKLHPEQTIQDYSGTATYQKTIDVPAELLADNKQIFLDLGKVKVAANVYLNDKLAGSAWHAPYRIDISNFVQAGKNKLTIKVANLWVNRLLADRKLPDTSGFKIARWQNPITPMPQWYVDNQPAPKSERVTFVTQVFMDDNEPRQSSGLIGPVQLSVRSKTQL | 0.13 | 2.480 | 2.446 | 4.051 |
| 1063 (protein, listed as Parabacteroides distasonis) MNNKINDATMRIKQSIYIYAFAALLLGGCKSNNELTIPTNLRTEYLTEPIGLDTSSPRFTWEYSGNEEGFKASRYEVRIGTSPDDLRPYAEGMALKPHTRYYWNVTVWDGEGRPCATSETASFETAKFDPSDWSASWITDHKDKEFEPAPLFRKSFPVGKEVKDARVYVASAGYHELFINGERVGTNYLDPGYTHFDKRILYVTHDVTSLLKQGDNAVAAVLGNGWYNEQSVAVWNFHEARWRDRPRLLCELRITYTDGTTEVIGSDETWKTSTGAYTYNNIYSGDKFDARLEEAGWKTAHFDDSKWEAALPAQAPAPLLVAQQMPGIRITEEVRPVSMKRFSDQLYVYSFPKNMSGLCRLKVKGEAGTRITLKHGELLKKDGRLEQGNINVYYHPVKPDEVFQMDVFTLKGTGEEEIFMPSFSYHGFQYVEVESSRPVTLTEENLTGLFMHTDVRPSGSFACSNPLLNKIWEATMQAYRSNLHSIPTDCPQREKNGWTADAHIAIDLGLLGFDGITLYEKWMDDIIDNQREAGEISGIIPSSGWGYGEWPGPVWDAVMFIIPNALYDYYGESRSIERLYPTMLRYLDYLKTKEKDGYLPFGLGDWVYWKATTNNEYTSTAYYYLDYKLMARFASLLGKDAAPYQEKANTLKSLINQKFFNAETGVYAEGTQTAQALALYLGLVPEGKEQLVADKLREVVAGNNYFLDFGLLGSKTVPAMLTKYGYIEDAMKMITKTEAPSWGYWVETMGYSTLPETWTLSPKFADASLNHVFMGDVSAWMMNQLAGINHDDSAPGFRHIRITPHFVKELDWAKGEYHSVRGRIASEWKREGDKVMLTVTIPADCSADIVVGDQTETVSAGTHTFTYPA | 0.17 | 2.473 | 2.240 | 4.201 |
| 1015 (protein, Bifidobacterium moukalabense) MITIIGLGVEHSERGCVTDNPHPRFSYAVRSDRSDVVVDGARLAVGDWTCEAGDQTAVAYDGKPLEPFTEYHVTLDVSTADGEHAHAETTFETGRLGQGWQGRWISDAGYDFVEKKVSPVPMMFRKPFTCDPTKSVRKARLYATAMGVYDFACDGKRIGDRYFAPGFTSYKTNLQYQTYDVTDMVGAGAVHTLLATVAGGWAVGSFVFTRKNRVSADRQALLAELRIEYTDGSVEVIGTDASWEVSESGPVRMADLYDGETYDAMMDPGADGSRCKDWRHASLENPRSRPRHIEADYGAGVVAHETLSPVSVARRAGGELVYDFGQNLAGVVRMRIANGRAGQTVVVRHAEILNPDGSLNTAFLRTAKATATYRCADADGFPEGVQEYGPRFTYMGFRYVSVRGVAEDDLRIEAVVLHSDLRPIGDFACSDERLNQLQHNIVWGAKSNLMDIPTDCPQRDERMGWTGDIAVFAPTACLNFDMSRFLEKWLRDVKAEQLKTGGIPNTVPVQGYGFPATMPEMAIDWWGDACVLVPWAVYRSSGDATVLHDMYDTMKRYVKACRFWAGLIGFGKSRYIWNTPSMLHFGDWVAPDVPKMSQWQKRAKWTATASLNNTSRTLARVAEVLGYDEDARAYDELADKVADAYCSVLTDGNGRLDNEFQTGYVLPLYLNMFPETVRGNAVDHLVKLIEDNDYCIGTGFPGTPYILFALADNGREDVAYRMLLNTACPSWLYEVGMGATTIWERWDGLDENGECPIGDDGTDLMISYNHYASGAVGAFLYQRVAGIEAIGAAYRSFRVRPVLGGGLTWAKAHVDTPYGRVGSAWSLDGGRFSITVEVPVGTTCELALPDGTTMQLSNGVHTATCEM | 0.15 | 3.048 | 2.969 | 4.132 |
| 1074 (protein, listed as Actinoplanes sp.) MKGSFAVLAAALLLMPVSAPTAAAEPAVTLDGAHWIWYPEGDPATSAPAATRYLRRAFTVAASDIATAQLVVTGDDTIDVWVNGVRLAGSPRAADSWKRAVRVDLAGSLHPGSNTVALAARNTGGPAGVLGRLHAGSVDLVTDGSWRAATGVPENWADPAFSDVAWTTAKDLGAYGGGPWGAGVALPDPAAASPVSVTDLTVNRQADPVGVDTPRFGWRLAAGTGGQMQGRYQLTVGSTAGAADVWDSGIVASTASRDIGYSGPALGANRTYFWRVRVWDAQGRPSAWSAGARFDTGIALTAAFVGAPPAGDLSGADWIWYPEGDPATSAPAATRYFRRTVTLATSTTLVVAGDDTADVWVDGTQISASPRVTDSWKTAATVTVPAGTRTIAIAASNTTVGPAGVIAKLGGIVTDGSWRSATAAPGGWQQPGFDDSGWLAAKVLAAYGSGPWGGQVLVPAAAPYLRKGFAVTRPVARARLFATALGLHDTYLNGARVGTERLAPGWTDYTKRVQYRGYDVTAALRLGDNALAAQIGHGWYSGNIGFAGSRRYGTQPWYAAQLIIEYTDGTSATVQTDGSWRTAPGNILGDDLYAGETQDARLIRSGWNTAGFDDSDWVPVTVQNGARPTLVPQVDPGVTVQQELRPVAVTQPKPGVFIADLGQNFTGWDRLRVSGPAGTTVTLRHGEILNADGTLYTANLRAAQATDRFTLAGTGTETFEPRFTVHGYRYVEITGFPGTPDADSLTGLAAWTGGAATGMFTSSDSTLNQVQRAILWGARSNLLSIPTDCPQRDERLGWTGDIAAFVATSTFNFDTYGLLAKFATDLTDAQHSDGAFTDVAPDVLGGAGKAGWGDAGVIVPYTVWQRFGDLAPADRNFAAMARWVDYLRSTAGADLIRNQDTYGDWLNVDDGTGNDLTSTAFFGWSARLVSRMAAATGRTAQAATYGTLADQIAAAFTGRFVHADNTVGTGSETGYVLALAFGLVPGDRVQAVADRLAAKVASRNGHLSVGFMGVENLLPVLADHGHADVAYRILQQPDYPGWGYMIARGATTIWERWDGIRPDGSLQDPGMNSFNHYGLGSVGDWLYREVGGVAPAAPGYAQVLLAPKPGGSLTSASAELTTTFGRVRSAWSRSGSAVTLQVVVATGTTATVRVPGTAVTSAPAEAVPVGGTSYVVGAGSYTFTSTL | 0.18 | 1.681 | 2.312 | 4.443 |
